From US20080213836

B1: Medaka EP-1 serine protease domain (wild-type) (protein)
chain: VVGGVNAEKGAWPWMVSLHWRGRHGCGASLIGRDWLLTAAHCVYGKNTHLQYWSAVLGLHAQSSMNSQEVQIRQVDRIIINKNYNRRTKEADIAMMHLQQPVNFTEWVLPVCLASEDQHFPAGRRCFIAGWGRDAEGGSLPDILQEAEVPLVDQDECQRLLPEYTFTSSMLCAGYPEGGVDSCQGDSGGPLMCLEDARWTLIGVTSFGVGCGRPERPGAYARVSAFTSWIAETRRSSFSDLD
B2: porcine EP serine protease domain (Ile800 to His1034) (protein)
chain: IVGGNDSREGAWPWVVALYYNGQLLCGASLVSRDWLVSAAHCVYGRNLEPSKWKAILGLHMTSNLTSPQIVTRLIDEIVINPHYNRRRKDSDIAMMHLEFKVNYTDYIQPICLPEENQVFPPGRICSIAGWGKVIYQGSPADILQEADVPLLSNEKCQQQMPEYNITENMMCAGYEEGGIDSCQGDSGGPLMCLENNRWLLAGVTSFGYQCALPNRPGVYARVPKFTEWIQSFLH

Columns and labels:
[1] = target: T1, Boc-Glu(OBzl)-Ala-Arg-MCA
T1 chain: EAR

[2] = target: D4K-cleavage site-containing control protein (Novagen)
[3] = target: T2, Gly-Asp-Asp-Asp-Asp-Lys-β-naphthylamide
T2 chain: GDDDDK

[4] = target: Human plasma fibronectin, P02751
Sequence of Human plasma fibronectin, P02751 (P02751 other isoform, or with tags, fused parts or gaps): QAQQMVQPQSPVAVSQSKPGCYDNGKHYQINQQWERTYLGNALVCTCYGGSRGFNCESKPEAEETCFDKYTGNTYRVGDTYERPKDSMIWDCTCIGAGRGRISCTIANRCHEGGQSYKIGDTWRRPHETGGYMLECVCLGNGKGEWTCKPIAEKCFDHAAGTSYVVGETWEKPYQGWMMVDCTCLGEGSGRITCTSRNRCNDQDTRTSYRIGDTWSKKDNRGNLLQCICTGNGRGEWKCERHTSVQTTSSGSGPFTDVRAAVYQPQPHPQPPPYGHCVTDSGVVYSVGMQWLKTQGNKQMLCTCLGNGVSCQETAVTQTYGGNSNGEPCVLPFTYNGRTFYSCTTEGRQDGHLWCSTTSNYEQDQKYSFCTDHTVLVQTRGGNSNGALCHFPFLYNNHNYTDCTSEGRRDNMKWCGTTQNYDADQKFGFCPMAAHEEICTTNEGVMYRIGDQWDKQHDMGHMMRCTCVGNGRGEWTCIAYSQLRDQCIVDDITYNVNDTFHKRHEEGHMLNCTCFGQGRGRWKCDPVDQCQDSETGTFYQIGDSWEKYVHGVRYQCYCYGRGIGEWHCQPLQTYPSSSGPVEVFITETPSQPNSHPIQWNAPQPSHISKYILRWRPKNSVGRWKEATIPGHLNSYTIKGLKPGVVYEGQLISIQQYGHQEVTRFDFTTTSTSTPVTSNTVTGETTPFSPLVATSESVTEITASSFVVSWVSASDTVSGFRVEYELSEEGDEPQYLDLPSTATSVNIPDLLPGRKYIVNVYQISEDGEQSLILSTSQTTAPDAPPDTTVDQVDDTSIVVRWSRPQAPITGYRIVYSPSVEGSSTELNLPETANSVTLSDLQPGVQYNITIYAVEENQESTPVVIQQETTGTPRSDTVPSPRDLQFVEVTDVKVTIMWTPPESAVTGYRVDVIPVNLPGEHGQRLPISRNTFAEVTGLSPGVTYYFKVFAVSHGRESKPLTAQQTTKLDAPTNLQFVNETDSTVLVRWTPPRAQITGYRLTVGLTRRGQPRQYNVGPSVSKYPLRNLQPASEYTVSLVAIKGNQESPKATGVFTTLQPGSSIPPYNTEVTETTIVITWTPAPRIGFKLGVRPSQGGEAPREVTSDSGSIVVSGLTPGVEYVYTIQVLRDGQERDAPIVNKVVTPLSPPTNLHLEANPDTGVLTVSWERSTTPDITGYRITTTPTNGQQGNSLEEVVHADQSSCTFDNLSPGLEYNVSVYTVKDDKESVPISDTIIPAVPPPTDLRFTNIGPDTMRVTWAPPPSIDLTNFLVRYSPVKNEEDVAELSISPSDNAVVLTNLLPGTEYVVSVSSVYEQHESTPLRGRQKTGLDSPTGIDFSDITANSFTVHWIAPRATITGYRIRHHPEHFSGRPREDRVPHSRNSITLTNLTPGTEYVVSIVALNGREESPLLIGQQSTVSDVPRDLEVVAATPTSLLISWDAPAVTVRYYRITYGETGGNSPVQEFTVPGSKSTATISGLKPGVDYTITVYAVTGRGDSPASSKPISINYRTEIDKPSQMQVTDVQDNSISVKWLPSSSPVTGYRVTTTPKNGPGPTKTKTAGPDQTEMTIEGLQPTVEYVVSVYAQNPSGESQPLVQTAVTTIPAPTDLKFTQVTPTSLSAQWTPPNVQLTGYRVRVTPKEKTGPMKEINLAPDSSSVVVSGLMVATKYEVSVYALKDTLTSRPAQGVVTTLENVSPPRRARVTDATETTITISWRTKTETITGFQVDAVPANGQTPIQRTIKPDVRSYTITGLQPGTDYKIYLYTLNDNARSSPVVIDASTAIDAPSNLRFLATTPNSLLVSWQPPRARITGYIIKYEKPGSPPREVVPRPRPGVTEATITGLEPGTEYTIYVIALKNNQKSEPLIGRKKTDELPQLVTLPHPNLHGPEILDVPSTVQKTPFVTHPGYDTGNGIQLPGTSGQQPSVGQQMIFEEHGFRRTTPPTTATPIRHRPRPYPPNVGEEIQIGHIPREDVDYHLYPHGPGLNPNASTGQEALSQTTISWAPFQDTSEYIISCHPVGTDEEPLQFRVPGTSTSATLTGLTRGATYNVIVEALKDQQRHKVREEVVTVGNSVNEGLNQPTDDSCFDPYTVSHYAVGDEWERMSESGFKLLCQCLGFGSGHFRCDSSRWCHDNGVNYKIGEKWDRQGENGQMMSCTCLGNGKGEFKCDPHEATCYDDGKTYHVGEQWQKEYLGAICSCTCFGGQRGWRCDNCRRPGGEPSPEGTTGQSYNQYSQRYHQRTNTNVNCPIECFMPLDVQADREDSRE

Pro-Phe-Arg-MCA = target: T3, Pro-Phe-Arg-MCA
T3 chain: PFR

Z-Phe-Arg-MCA = target: T4, Z-Phe-Arg-MCA
T4 chain: FR

[5] = target: human single-chain tPA fusion protein with N-terminal His-tag/EP-cleavage site, P00750
Sequence of human single-chain tPA fusion protein with N-terminal His-tag/EP-cleavage site, P00750 (P00750 whole entry, looked up, the tested form may be a part): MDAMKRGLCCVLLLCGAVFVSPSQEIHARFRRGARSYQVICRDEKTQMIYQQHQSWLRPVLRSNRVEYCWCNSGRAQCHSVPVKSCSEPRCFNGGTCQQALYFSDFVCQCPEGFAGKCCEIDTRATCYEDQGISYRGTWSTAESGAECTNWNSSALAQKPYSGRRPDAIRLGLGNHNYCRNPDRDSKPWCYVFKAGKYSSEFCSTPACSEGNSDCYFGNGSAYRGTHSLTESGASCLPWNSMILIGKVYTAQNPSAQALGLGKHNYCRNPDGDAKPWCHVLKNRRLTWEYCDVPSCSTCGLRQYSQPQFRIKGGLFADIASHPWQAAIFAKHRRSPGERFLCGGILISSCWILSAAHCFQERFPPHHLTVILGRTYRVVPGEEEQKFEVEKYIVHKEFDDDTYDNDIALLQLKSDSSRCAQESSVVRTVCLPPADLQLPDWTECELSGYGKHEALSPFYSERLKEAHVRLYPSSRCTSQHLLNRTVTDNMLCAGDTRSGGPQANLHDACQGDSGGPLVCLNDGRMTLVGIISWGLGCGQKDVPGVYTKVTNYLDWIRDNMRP

[6] = target: recombinant fusion protein of Medaka gelatinase A
[7] = target: recombinant fusion protein of Medaka trypsinogen
[8] = target: T5, recombinant fusion protein of human kallikrein 8 (hK8), O60259
T5 sequence (O60259 whole entry, looked up): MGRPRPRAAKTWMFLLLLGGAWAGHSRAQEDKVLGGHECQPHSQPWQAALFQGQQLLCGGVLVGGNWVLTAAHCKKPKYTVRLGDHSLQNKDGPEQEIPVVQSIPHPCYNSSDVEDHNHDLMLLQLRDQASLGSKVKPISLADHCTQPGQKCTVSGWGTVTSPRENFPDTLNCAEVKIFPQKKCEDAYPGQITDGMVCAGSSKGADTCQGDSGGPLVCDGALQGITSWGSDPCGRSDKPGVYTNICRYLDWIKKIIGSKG

human fibrinogen, P02671 = target: T6, human fibrinogen, P02671
T6 chain 1: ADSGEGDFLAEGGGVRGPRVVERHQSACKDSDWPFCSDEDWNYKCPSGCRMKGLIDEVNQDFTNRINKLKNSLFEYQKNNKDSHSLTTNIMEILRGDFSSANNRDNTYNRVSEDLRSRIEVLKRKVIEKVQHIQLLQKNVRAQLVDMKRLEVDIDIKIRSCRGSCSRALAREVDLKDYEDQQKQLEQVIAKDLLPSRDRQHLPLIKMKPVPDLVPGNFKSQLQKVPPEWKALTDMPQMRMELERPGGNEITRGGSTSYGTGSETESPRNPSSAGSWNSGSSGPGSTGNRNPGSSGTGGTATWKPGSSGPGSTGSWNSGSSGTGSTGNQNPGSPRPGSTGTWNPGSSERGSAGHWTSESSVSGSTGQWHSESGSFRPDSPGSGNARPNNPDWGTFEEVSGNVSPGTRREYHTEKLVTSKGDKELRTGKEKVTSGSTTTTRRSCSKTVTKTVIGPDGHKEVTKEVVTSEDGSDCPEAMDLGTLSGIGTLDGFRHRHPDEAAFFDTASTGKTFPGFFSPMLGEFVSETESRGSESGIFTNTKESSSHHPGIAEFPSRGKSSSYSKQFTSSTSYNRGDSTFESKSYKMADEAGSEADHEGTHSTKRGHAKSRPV
T6 chain 2: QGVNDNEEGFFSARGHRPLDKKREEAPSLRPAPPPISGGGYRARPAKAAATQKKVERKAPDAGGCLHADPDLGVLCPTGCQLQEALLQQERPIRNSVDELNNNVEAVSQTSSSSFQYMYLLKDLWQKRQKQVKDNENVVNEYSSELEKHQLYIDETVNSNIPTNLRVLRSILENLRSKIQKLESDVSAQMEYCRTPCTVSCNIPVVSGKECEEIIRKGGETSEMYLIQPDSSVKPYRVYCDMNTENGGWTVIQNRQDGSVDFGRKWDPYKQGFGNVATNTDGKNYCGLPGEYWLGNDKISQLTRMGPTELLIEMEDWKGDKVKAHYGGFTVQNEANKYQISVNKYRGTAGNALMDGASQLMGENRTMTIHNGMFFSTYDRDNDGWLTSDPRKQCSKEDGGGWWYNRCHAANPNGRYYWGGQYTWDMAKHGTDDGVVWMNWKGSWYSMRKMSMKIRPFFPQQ
T6 chain 3: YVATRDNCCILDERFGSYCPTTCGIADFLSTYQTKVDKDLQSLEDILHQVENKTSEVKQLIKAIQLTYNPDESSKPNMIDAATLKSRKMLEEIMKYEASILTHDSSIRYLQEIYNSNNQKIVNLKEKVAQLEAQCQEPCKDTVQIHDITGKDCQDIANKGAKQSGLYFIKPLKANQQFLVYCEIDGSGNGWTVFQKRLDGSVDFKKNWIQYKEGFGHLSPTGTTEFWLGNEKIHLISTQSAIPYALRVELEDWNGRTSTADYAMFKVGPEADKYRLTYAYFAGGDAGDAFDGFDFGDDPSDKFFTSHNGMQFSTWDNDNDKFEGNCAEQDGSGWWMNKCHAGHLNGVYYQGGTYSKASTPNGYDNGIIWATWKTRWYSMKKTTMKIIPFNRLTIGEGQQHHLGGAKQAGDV

[9] = target: T7, human high-molecular-weight (HMW) kininogen, P01042
T7 chain: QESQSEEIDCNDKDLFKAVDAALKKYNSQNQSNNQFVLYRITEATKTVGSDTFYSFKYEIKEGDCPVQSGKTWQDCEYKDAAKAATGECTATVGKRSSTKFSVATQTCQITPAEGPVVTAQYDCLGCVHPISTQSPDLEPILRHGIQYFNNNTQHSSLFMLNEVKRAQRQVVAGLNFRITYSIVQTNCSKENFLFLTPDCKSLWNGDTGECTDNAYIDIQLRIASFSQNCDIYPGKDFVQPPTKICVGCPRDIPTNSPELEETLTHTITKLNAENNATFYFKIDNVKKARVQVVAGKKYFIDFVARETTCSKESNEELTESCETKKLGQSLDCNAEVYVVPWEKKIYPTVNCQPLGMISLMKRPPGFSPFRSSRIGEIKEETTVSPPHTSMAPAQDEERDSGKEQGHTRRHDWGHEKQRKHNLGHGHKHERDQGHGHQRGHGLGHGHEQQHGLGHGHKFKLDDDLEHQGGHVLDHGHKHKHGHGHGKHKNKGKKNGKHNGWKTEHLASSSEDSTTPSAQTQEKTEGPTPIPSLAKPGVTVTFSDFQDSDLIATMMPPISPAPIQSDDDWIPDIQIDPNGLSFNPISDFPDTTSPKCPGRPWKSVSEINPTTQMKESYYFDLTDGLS

Protein	Km [1] [µM]	kcat [1] [s⁻¹]	kcat/Km (mM^-1 · min^-1) [1]	cleavage of the fusion protein (SDS-PAGE) [2]	Km [3] [µM]	kcat [3] [s⁻¹]	kcat/Km (mM^-1 · min^-1) [3]	proteolytic activity (SDS-PAGE) [4]	Km (Pro-Phe-Arg-MCA) [µM]	kcat (Pro-Phe-Arg-MCA) [s⁻¹]	kcat/Km (mM^-1 · min^-1) (Pro-Phe-Arg-MCA)	Km (Z-Phe-Arg-MCA) [µM]	kcat (Z-Phe-Arg-MCA) [s⁻¹]	kcat/Km (mM^-1 · min^-1) (Z-Phe-Arg-MCA)	proteolytic activity (gelatin zymography) (gelatin)	cleavage of the fusion protein (SDS-PAGE/Western blot) [5]	proteolytic activity (SDS-PAGE) (mouse laminin)	cleavage of the fusion protein (SDS-PAGE) [6]	cleavage of the fusion protein (SDS-PAGE) [8]	other results
B1	200	0.112	34	the Medaka protease specifically cleaved the fusion protein to generate two polypeptides having expected molecular masses of 16- and 32-kDa	700	15.7	1300	Little or no hydrolysis was observed with the fish enzyme for the proteins	10000	2.33	14	100	0.0483	29	Little or no hydrolysis was observed with the fish enzyme for the proteins	The protein samples treated with the Medaka wild-type or mutant EP proteases, but not with mammalian ones, showed two polypeptides (53- and 55-kDa)	Little or no hydrolysis was observed with the fish enzyme for the proteins	A 60-kDa fusion protein was converted by wild-type or mutant proteases to a 55-kDa protein	Digestion with Medaka wild-type and mutant EP proteases generated 31.5-kDa active hK8 by cleaving the D4K sequence	amidolytic activity [1]: much lower than those of the EP proteases of mammalian origin; cleavage rate [3]: cleaved GD4K-βNA at a rate comparable to those of the porcine and bovine enzymes; enzyme activity for GD4K-βNA [3]: EP-1 was approximately three times more active than EP-2; amidolytic activity (Pro-Phe-Arg-MCA): much lower than those of the EP proteases of mammalian origin; amidolytic activity (Z-Phe-Arg-MCA): much lower than those of the EP proteases of mammalian origin; conversion of trypsinogen to active trypsin [7]: The trypsinogen was converted to active trypsin by EP-1 faster than by EP-2
B2	300	1.83	370	the mammalian enzymes not only produced the two expected polypeptides but also further degraded the products	400	8.83	1300	these substrates were detectably hydrolyzed by the mammalian proteases	3900	5	77	200	0.917	280	these substrates were detectably hydrolyzed by the mammalian proteases	but not with mammalian ones, showed two polypeptides (53- and 55-kDa)	these substrates were detectably hydrolyzed by the mammalian proteases	the fusion protein was extensively digested by mammalian EP serine proteases	the porcine protease extensively degraded the substrate	nonspecific proteolytic activity (SDS-PAGE) (human fibrinogen, P02671): both of which were degraded noticeably by mammalian EP proteases; nonspecific proteolytic activity (SDS-PAGE) [9]: both of which were degraded noticeably by mammalian EP proteases
